# Test results published in patent US6436691B1, “Chemical compounds” (Zeneca Limited, priority 1995, dated 2002).
# B1: Native HCPB: purified recombinant native human pancreatic carboxypeptidase B (protein, UniProt P15086 111-417, looked up)
# Carboxypeptidase B: ATGHSYEKYNKWETIEAWTQQVATENPALISRSVIGTTFEGRAIYLLKVGKAGQNKPAIFMDCGFHAREWISPAFCQWFVREAVRTYGREIQVTELLDKLDFYVLPVLNIDGYIYTWTKSRFWRKTRSTHTGSSCIGTDPNRNFDAGWCEIGASRNPCDETYCGPAAESEKETKALADFIRNKLSSIKAYLTIHSYSQMMIYPYSYAYKLGENNAELNALAKATVKELASLHGTKYTYGPGATTIYPAAGGSDDWAYDQGIRYSFTFELRDTGRYGFLLPESQIRATCEETFLAIKYVASYVLEHLY
# B2: HCPB: mature HCPB in supernatant of COS-7 cells co-transfected with preHCPB and prepro sequence plasmids (protein, UniProt P15086 111-417, looked up)
# Carboxypeptidase B: ATGHSYEKYNKWETIEAWTQQVATENPALISRSVIGTTFEGRAIYLLKVGKAGQNKPAIFMDCGFHAREWISPAFCQWFVREAVRTYGREIQVTELLDKLDFYVLPVLNIDGYIYTWTKSRFWRKTRSTHTGSSCIGTDPNRNFDAGWCEIGASRNPCDETYCGPAAESEKETKALADFIRNKLSSIKAYLTIHSYSQMMIYPYSYAYKLGENNAELNALAKATVKELASLHGTKYTYGPGATTIYPAAGGSDDWAYDQGIRYSFTFELRDTGRYGFLLPESQIRATCEETFLAIKYVASYVLEHLY
# B3: proHCPB: proHCPB expressed from COS-7 cells (plasmid pMF49), activated with trypsin (protein, UniProt P15086 16-417, looked up)
# pro-form: HHGGEHFEGEKVFRVNVEDENHINIIRELASTTQIDFWKPDSVTQIKPHSTVDFRVKAEDTVTVENVLKQNELQYKVLISNLRNVVEAQFDSRVRATGHSYEKYNKWETIEAWTQQVATENPALISRSVIGTTFEGRAIYLLKVGKAGQNKPAIFMDCGFHAREWISPAFCQWFVREAVRTYGREIQVTELLDKLDFYVLPVLNIDGYIYTWTKSRFWRKTRSTHTGSSCIGTDPNRNFDAGWCEIGASRNPCDETYCGPAAESEKETKALADFIRNKLSSIKAYLTIHSYSQMMIYPYSYAYKLGENNAELNALAKATVKELASLHGTKYTYGPGATTIYPAAGGSDDWAYDQGIRYSFTFELRDTGRYGFLLPESQIRATCEETFLAIKYVASYVLEHLY
# modifications: pro-form
# Key:
# [1] = Conversion of Hipp-Asp to hippuric acid by mutant and native human CPB, HPLC assay (Example 6); format: biochemical; settings: 5 hr at 37° C.; 4 μg enzyme; 0.5 mM substrate
# Description: (§1) Purified mutants of human CPB (D253K and D253R; Examples 1-3) and native human CPB, produced as described in Reference Example 12, were assayed for their ability to convert either hippuryl-L-aspartic acid (Hipp-Asp—Reference Example 2), hippuryl-L-glutamic acid (Hipp-Glu—Reference Example 1) or hippuryl-L-arginine (Sigma Chemical Company—cat no. H6625) to hippuric acid using a HPLC based assay.
# (§2) The reaction mixture (250 μl) contained 4 μg human CPB (native or mutant) and 0.5 mM Hipp-Asp or Hipp-Glu in 0.025 M Tris-HCL, pH 7.5. Samples were incubated for 5 hr at 37° C. The reactions were terminated by the addition of 250 μl of 80% methanol, 20% distilled water, 0.2% trifluoro acetic acid and the amount of hippuric acid generated was quantified by HPLC.
# (§3) HPLC analysis was carried out using a Hewlett Packard 1090 Series 11 (with diode array) HPLC system. Samples (50 μl) were injected onto a Hichrom Hi-RPB column (25 cm) and separated using a mobile phase of 40% methanol, 60% distilled water, 0.1% trifluoro acetic acid at a flow rate of 1 ml/min. The amount of product (hippuric acid) produced was determined from calibration curves generated with known amounts of hippuric acid (Sigma-H6375). The results are shown in Table 1 and are expressed as the percentage conversion of substrate into product in 5 hr at 37° C. with 4 μg enzyme.
# [2] = system: LoVo colorectal tumour cells; settings: 100 μg enzyme added to assay wells containing glutamic acid prodrug
# [3] = Conversion of Hipp-Arg to hippuric acid by mutant and native human CPB, HPLC assay (Example 6); format: biochemical; settings: 5 hr at 37° C.; 4 μg enzyme
# Description: as §1, §2, §3
# [4] = Conversion of Hipp-Glu to hippuric acid by mutant and native human CPB, HPLC assay (Example 6); format: biochemical; settings: 5 hr at 37° C.; 4 μg enzyme; 0.5 mM substrate
# Description: as §1, §2, §3
# [5] = Km and kcat of recombinant HCPB against Hipp-Arg, spectrophotometric assay; format: biochemical; settings: Hipp-Arg 0.75-[…]; CPB 1 μg/ml; 37° C.; pH 7.5
# Description: Purified human CPB, produced as described in Reference Example 12, was assayed for its ability to convert hippuryl-L-arginine (Hipp-Arg; Sigma) to hippuric acid using a spectrophotometric assay.
# (§4) Measurements were carried out at 37° C. in 0.25 mM Tris HCl buffer, pH 7.5 using 1 cm path length cuvettes in a total volume of 1.0 ml using a Perkin Elmer Lambda 2 spectrophotometer. Km and Vmax values were calculated using the ENZFITTER software programme (Biosoft, Perkin Elmer). Kcat was calculated from Vmax by dividing by the enzyme concentration in the reaction mixture.
# [6] = HCPB activity of COS-7 cell supernatants against Hipp-Arg (5 h assay); format: biochemical; settings: COS-7 cell supernatant 250 μl
# Description: as §4
# For expression in eukaryotic cells, vectors containing genes capable of expressing preHCPB and the prepro sequence were cotransfected into COS-7 cells. COS cells are an African green monkey kidney cell line, CV-1, transformed with an origin-defective SV40 virus and have been widely used for short-term transient expression of a variety of proteins because of their capacity to replicate circular plasmids containing an SV40 origin of replication to very high copy number. There are two widely available COS cell clones, COS-1 and COS-7. The basic methodology for transfection of COS cells is described by Bebbington in Methods: A Companion to Methods in Enzymology (1991) 2, p. 141. […] Cell supernatants (250 μl) were analysed for HCPB activity against Hipp-Arg (5 h assay) as described in Reference Example 3. […]
molecule,measurement,setting,value
B1,Hipp-Asp (% conversion to Hippuric acid),[1],0%
same,cytotoxicity of the glutamic acid prodrug with enzyme added,[2],does not significantly enhance
same,Hipp-Arg (% conversion to Hippuric acid),[3],100%
same,Hipp-Glu (% conversion to Hippuric acid),[4],0%
same,Km,[5],180 µM
same,kcat against Hipp-Arg,[5],65 s⁻¹
B2,Hipp-Arg substrate hydrolysed,[6]; co-transfection with prepro sequence,61%
B3,hydrolysis of the Hipp-Arg substrate,[6]; after activation with trypsin 700 μg/ml,complete hydrolysis
